These results are taken from US20090253630A1.

The test addresses PTHR-emGFP expressed in transfected HEK 293 cells. The test can be described thus: cell-based or functional assay.

For the substance “PTH(1-38) (from UniProt P01270 32-69) (peptide)”, the PTHR1 internalization at 20 min, 100 nM compound, percent of vehicle only control (baseline=100%) (% of vehicle only control) turned out to be 166; the PTHR1 internalization at 40 min, 100 nM compound, percent of vehicle only control (baseline=100%) (% of vehicle only control) came out at 177; the PTHR1 internalization at 60 min, 100 nM compound, percent of vehicle only control (baseline=100%) (% of vehicle only control) was 224; the PTHR1 internalization at 180 min, 100 nM compound, percent of vehicle only control (baseline=100%) (% of vehicle only control) turned out to be 175.
